Experimental data: patent publication US20250076311A1 (Chugai, published 2025)

T1: human FcγRIIb extracellular domain with C-terminal His-tag (human, UniProt P31994 43-217)
T1 construct: also called human FcgRIIb; not shown: His-tag added to the C-terminus
T1 sequence: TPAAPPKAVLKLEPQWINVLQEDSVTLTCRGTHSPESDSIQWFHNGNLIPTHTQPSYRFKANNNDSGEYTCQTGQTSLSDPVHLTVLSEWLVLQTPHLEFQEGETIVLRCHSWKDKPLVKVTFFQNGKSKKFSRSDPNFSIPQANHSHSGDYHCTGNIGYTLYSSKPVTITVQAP


Columns and labels:
[1] = target: T2, human FcγRIIIaV extracellular domain with C-terminal His-tag (human, UniProt P08637 17-208); experiment: SPR (BIACORE), antibody captured, FcgR analyte
T2 construct: also called human FcgRIIIaV; not shown: His-tag added to the C-terminus
T2 sequence (P08637 17-208 F176V): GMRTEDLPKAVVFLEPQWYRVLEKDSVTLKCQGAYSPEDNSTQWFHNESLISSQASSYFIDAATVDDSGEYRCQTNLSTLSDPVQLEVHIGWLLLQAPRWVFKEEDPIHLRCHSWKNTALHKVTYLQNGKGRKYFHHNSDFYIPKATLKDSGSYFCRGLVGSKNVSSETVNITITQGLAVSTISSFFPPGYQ

[2] = target: T3, cynomolgus monkey FcγRIIIaS extracellular domain with C-terminal His-tag (cynomolgus monkey, UniProt A3RFZ7 21-206 (rhesus entry)); experiment: SPR (BIACORE), antibody captured, FcgR analyte
T3 construct: also called cyno FcgRIIIaS; cynoFcγRIIIaS; not shown: His-tag added to the C-terminus

[3] = target: T1, human FcγRIIb extracellular domain with …; experiment: SPR (BIACORE), antibody captured, FcgR analyte
[4] = target: T4, human FcγRIIIaV extracellular domain with C-terminal His-tag (human, UniProt P08637 17-208); experiment: SPR Biacore, antibody captured, FcgR analyte
T4 construct: also called human FcgRIIIaV; not shown: His-tag added to C-terminus
T4 sequence (P08637 17-208 F176V): as above

[5] = target: T5, cynomolgus monkey FcγRIIIaS extracellular domain with C-terminal His-tag (cynomolgus monkey, UniProt A3RFZ7 21-206 (rhesus entry)); experiment: SPR Biacore, antibody captured, FcgR analyte
T5 construct: also called cyno FcgRIIIaS; cynoFcγRIIIaS; not shown: His-tag added to C-terminus

Binder	Kd [1]	Kd [2]	Kd [3]	KD fold (SG1 = 1) [4]	KD fold (SG1 = 1) [5]	Kd [5]
M103205H795-MY204/M103202L889-SK1 (antibody, human IgG1, kappa, name in EU numbering, Fc variant of MS1032LO06-SG1; positions in EU numbering) heavy: QVTLKESGPVLVKPTETLTLTCTVSGIDLSHDDISWVRQAPGKGLEWVGIISYAGSTYYASWAKGRLTISKDTSKNQVVLTMTNMDPVDTATYYCARGVPAYSHGGDLWGQGTLVTVSSASTKGPSVFPLAPSSKSTSGGTAALGCLVKDYFPEPVTVSWNSGALTSGVHTFPAVLQSSGLYSLSSVVTVPSSSLGTQTYICNVNHKPSNTKVDKKVEPKSCDKTHTCPPCPAPELLNGPVVFLFPPKPKDTLMISRTPEVTCVVVDVSEEDPEVKFNWYVDGVEVHNAKTKPREELYNSTYRVVSVLTVLHQDWLNGKEYKCKVSNKALPKPIEKTISKAKGQPREPQVYTLPPSREEMTKNQVSLTCLVKGFYPSDIAVEWESNGQPENNYKTTPPVLDSDGSFFLYSKLTVDKSRWQQGNVFSCSVMHEALHNHYTQKSLSLSP light: DIVMTQSPATLSLSPGERATLSCTSSQSVYHANWLSWFQQKPGQPPKLLIYWASTLAYGVPSRFSGSGSGTDFTLTISSLQPEDAATYYCAGGYGGGRYAFGQGTKVEIKRTVAAPSVFIFPPSDEQLKSGTASVVCLLNNFYPREAKVQWKVDNALQSGNSQESVTEQDSKDSTYSLSSTLTLSKADYEKHKVYACEVTHQGLSSPVTKSFNRGEC	11 µM	3.5 µM	1.5 µM			
M103205H795-MY209/M103202L889-SK1 (antibody, human IgG1, kappa, name in EU numbering, substitutions in EU numbering, introduced into M103205H795-SG1) heavy: QVTLKESGPVLVKPTETLTLTCTVSGIDLSHDDISWVRQAPGKGLEWVGIISYAGSTYYASWAKGRLTISKDTSKNQVVLTMTNMDPVDTATYYCARGVPAYSHGGDLWGQGTLVTVSSASTKGPSVFPLAPSSKSTSGGTAALGCLVKDYFPEPVTVSWNSGALTSGVHTFPAVLQSSGLYSLSSVVTVPSSSLGTQTYICNVNHKPSNTKVDKKVEPKSCDKTHTCPPCPAPELLNGPSVFLFPPKPKDTLMISRTPEVTCVVVDVSDEDPEVKFNWYVDGVEVHNAKTKPREELYNSTYRVVSVLTVLHQDWLNGKEYKCKVSNTALPKPIEKTISKAKGQPREPQVYTLPPSREEMTKNQVSLTCLVKGFYPSDIAVEWESNGQPENNYKTTPPVLDSDGSFFLYSKLTVDKSRWQQGNVFSCSVMHEALHNHYTQKSLSLSP light: DIVMTQSPATLSLSPGERATLSCTSSQSVYHANWLSWFQQKPGQPPKLLIYWASTLAYGVPSRFSGSGSGTDFTLTISSLQPEDAATYYCAGGYGGGRYAFGQGTKVEIKRTVAAPSVFIFPPSDEQLKSGTASVVCLLNNFYPREAKVQWKVDNALQSGNSQESVTEQDSKDSTYSLSSTLTLSKADYEKHKVYACEVTHQGLSSPVTKSFNRGEC				0.09 fold		
M103205H795-MY182/M103202L889-SK1 (antibody, human IgG1, kappa, name in EU numbering, EU numbering) heavy: QVTLKESGPVLVKPTETLTLTCTVSGIDLSHDDISWVRQAPGKGLEWVGIISYAGSTYYASWAKGRLTISKDTSKNQVVLTMTNMDPVDTATYYCARGVPAYSHGGDLWGQGTLVTVSSASTKGPSVFPLAPSSKSTSGGTAALGCLVKDYFPEPVTVSWNSGALTSGVHTFPAVLQSSGLYSLSSVVTVPSSSLGTQTYICNVNHKPSNTKVDKKVEPKSCDKTHTCPPCPAPELLNGPSVFLFPPKPKDTLMISRTPEVTCVVVDVSEEDPEVKFNWYVDGVEVHNAKTKPREEQYNSTYRVVSVLTVLHQDWLNGKEYKCKVSNKALPAPIEKTISKAKGQPREPQVYTLPPSREEMTKNQVSLTCLVKGFYPSDIAVEWESNGQPENNYKTTPVVLDSDGSFFLYSKLTVDKSRWQQGNVFSCSVMHEALHNHYTQKSLSLSP light: DIVMTQSPATLSLSPGERATLSCTSSQSVYHANWLSWFQQKPGQPPKLLIYWASTLAYGVPSRFSGSGSGTDFTLTISSLQPEDAATYYCAGGYGGGRYAFGQGTKVEIKRTVAAPSVFIFPPSDEQLKSGTASVVCLLNNFYPREAKVQWKVDNALQSGNSQESVTEQDSKDSTYSLSSTLTLSKADYEKHKVYACEVTHQGLSSPVTKSFNRGEC				0.17 fold	0.1 fold	3.6 µM
